Patent publication US6822075

What was measured:
[1] = target: Human polyclonal IgG (human); test: affinity constant, method not stated; table prints no power of ten
[2] = target: Human polyclonal IgG (human); test: affinity constant, method not stated; same result as the 1st table, row 8, column 7 but printed with its power of ten

- Ka [1]: 20 M⁻¹
- Ka [2]: 2e+10 M⁻¹
B1: Protein LG (protein)
chain: AVENKEETPETPETDSEEEVTIKANLIFANGSTQTAEFKGTFEKATSEAYAYADTLKKDNGEYTVDVADKGYTLNIKFAGKEKTPEEPKEEVTIKANLIYADGKTQTAEFKGTFEEATAEAYRYADALKKDNGEYTVDVADKGYTLNIKFAGKEKTPEEPKEEVTIKANLIYADGKTQTAEFKGTFEEATAEAYRYADLLAKENGKYTVDVADKGYTLNIKFAGKEKTPEEPKEEVTIKANLIYADGKTQTAEFKGTFAEATAEAYRYADLLAKENGKYTADLEDGGYTINIRFAGKKVDEKPEEPMDTYKLILNGKTLKGETTTEAVDAATAEKVFKQYANDNGVDGEWTYDDATKTFTVTEKPEVIDASELTPAVTTYKLVINGKTLKGETTTKAVDAETAEKAFKQYANDNGVDGVWTYDDATKTFTVTEM
